Assay [1] addresses HIS-TreA^N-bCalm: N-terminally HIS-tagged N-terminal fragment of TreA^N with C-terminal fusion of bovine …. Nature of the assay: split trehalase complementation with Ca2+, glucose read-out.
For assay [2], the target named is T1, HIS-TreAC-KI: N-terminally HIS-tagged fragment of TreA with C-terminal fusion leucine zipper (Escherichia coli O9:H4 (strain HS), UniProt A7ZZD1 97-565).
T1 sequence: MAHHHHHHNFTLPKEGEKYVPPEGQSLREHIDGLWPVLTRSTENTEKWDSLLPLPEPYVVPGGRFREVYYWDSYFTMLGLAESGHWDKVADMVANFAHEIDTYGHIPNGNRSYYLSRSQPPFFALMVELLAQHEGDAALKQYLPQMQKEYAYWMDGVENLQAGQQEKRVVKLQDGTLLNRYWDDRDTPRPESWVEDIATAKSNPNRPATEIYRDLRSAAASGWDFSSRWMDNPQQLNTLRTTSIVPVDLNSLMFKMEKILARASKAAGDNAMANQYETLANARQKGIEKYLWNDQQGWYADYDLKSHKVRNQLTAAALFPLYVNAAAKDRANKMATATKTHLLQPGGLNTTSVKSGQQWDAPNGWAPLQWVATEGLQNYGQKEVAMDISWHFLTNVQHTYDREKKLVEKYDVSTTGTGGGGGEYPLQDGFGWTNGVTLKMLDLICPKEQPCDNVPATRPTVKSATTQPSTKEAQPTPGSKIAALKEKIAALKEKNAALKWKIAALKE
Nature of the assay: cell-based or functional assay.

For assay [3], the target named is T2, HIS-TreAC-EI: N-terminally HIS-tagged fragment of TreA with C-terminal fusion leucine zipper (Escherichia coli O9:H4 (strain HS), UniProt A7ZZD1 97-565).
T2 sequence: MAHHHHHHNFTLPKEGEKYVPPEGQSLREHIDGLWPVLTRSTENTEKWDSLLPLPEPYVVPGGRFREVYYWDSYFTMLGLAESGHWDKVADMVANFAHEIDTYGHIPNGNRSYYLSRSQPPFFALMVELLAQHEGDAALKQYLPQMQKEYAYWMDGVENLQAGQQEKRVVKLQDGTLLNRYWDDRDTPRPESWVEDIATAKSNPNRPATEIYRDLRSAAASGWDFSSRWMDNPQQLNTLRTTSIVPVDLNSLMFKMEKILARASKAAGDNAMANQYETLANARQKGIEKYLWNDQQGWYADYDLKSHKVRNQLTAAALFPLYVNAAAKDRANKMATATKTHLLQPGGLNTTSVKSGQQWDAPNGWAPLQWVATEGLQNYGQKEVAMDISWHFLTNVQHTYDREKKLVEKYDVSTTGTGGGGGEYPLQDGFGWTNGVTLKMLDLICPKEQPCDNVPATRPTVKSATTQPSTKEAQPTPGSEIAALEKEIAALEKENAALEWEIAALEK
Nature of the assay: split trehalase complementation, non-complementary zippers Ei+Ei (FIG. 24A).

Assay [4] deals with T3, HIS-TreAC: N-terminally HIS-tagged C-terminal fragment of TreA (Escherichia coli O9:H4 (strain HS), UniProt A7ZZD1 97-565).
T3 construct: Split E. coli trehalase fragment; also called HIS-tagged TreA^C
T3 sequence: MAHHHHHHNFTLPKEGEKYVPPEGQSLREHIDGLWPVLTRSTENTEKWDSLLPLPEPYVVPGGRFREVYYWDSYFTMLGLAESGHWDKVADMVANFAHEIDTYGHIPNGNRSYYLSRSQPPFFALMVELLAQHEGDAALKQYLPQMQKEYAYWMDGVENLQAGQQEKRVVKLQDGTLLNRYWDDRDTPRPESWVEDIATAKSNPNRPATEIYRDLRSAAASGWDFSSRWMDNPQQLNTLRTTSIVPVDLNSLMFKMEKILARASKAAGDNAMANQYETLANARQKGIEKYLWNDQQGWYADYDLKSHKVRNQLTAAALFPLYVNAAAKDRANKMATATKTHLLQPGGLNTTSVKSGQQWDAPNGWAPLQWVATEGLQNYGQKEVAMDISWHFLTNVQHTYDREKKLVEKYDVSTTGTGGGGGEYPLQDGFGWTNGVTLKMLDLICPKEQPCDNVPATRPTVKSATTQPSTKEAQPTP
The assay can be described thus: split trehalase complementation, 24 h with trehalose, Benedict's reagent (FIG. 7).

Assay [5] has as its target T4, TreAC-HIS: C-terminally HIS-tagged C-terminal fragment of TreA (Escherichia coli O9:H4 (strain HS), UniProt A7ZZD1 96-565).
T4 construct: Split E. coli trehalase fragment; also called HIS-tagged TreA^C
T4 sequence: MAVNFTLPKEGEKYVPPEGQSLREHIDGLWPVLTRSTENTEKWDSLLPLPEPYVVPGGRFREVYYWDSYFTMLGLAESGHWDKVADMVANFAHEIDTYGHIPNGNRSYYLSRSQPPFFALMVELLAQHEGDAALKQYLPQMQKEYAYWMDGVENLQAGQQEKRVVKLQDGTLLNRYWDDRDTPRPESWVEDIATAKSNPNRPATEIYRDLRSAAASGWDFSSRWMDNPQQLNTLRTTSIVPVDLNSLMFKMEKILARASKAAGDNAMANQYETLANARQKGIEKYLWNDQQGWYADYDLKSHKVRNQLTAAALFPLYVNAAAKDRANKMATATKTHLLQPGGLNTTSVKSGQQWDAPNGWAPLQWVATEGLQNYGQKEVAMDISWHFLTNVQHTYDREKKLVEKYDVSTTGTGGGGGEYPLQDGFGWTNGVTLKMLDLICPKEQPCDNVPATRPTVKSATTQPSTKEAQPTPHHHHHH
The assay is described as above.

Assay [6] deals with T1, HIS-TreAC-KI: N-terminally HIS-tagged …. The assay can be described thus: split trehalase complementation, non-complementary zippers Ki+Ki (FIG. 24A).

B1: CaMKIIp-TreA^C-HIS: CaMKII peptide N-terminally fused to the C-terminally HIS-tagged C-terminal fragment of TreA (other)
chain: MARRKLKGAILTTMLATRNFVDNFTLPKEGEKYVPPEGQSLREHIDGLWPVLTRSTENTEKWDSLLPLPEPYVVPGGRFREVYYWDSYFTMLGLAESGHWDKVADMVANFAHEIDTYGHIPNGNRSYYLSRSQPPFFALMVELLAQHEGDAALKQYLPQMQKEYAYWMDGVENLQAGQQEKRVVKLQDGTLLNRYWDDRDTPRPESWVEDIATAKSNPNRPATEIYRDLRSAAASGWDFSSRWMDNPQQLNTLRTTSIVPVDLNSLMFKMEKILARASKAAGDNAMANQYETLANARQKGIEKYLWNDQQGWYADYDLKSHKVRNQLTAAALFPLYVNAAAKDRANKMATATKTHLLQPGGLNTTSVKSGQQWDAPNGWAPLQWVATEGLQNYGQKEVAMDISWHFLTNVQHTYDREKKLVEKYDVSTTGTGGGGGEYPLQDGFGWTNGVTLKMLDLICPKEQPCDNVPATRPTVKSATTQPSTKEAQPTPHHHHHH
notes: also called MaMKII peptide fused to C-terminal fragment of TreA
For B1, the binding result in assay [1] is listed as “binds”.

B2: HIS-TreAN-EI: N-terminally HIS-tagged N-terminal fragment of TreA with C-terminal fusion with leucine zipper (other)
chain: MAHHHHHHEETPVTPQPPDILLGPLFNDVQNAKLFPDQKTFADAVPNSDPLMILADYRMQQNQSGFDLRHFVNVNFTLPKEGEKYVPGSVPGSEIAALEKEIAALEKENAALEWEIAALEK
For the molecule B2, the “glucose signal over 3 h, lyophilized fusions resuspended in acidified bovine blood or milk (glucose strips)” value in assay [2] was 2 fold. The binding result in assay [3] is “no binding”.

B3: TreAN-HIS: C-terminally HIS-tagged N-terminal fragment of TreA (w/o signal peptide) (other)
chain: MEETPVTPQPPDILLGPLFNDVQNAKLFPDQKTFADAVPNSDPLMILADYRMQQNQSGFDLRHFVNVNFTLPKEGEKYVPHHHHHH
notes: Split E. coli trehalase fragment; also called HIS-tagged TreA^N
Turning to B3, the binding result in assay [4] and in assay [5] was “no binding” in each case.

B4: HIS-TreAN-KI: N-terminally HIS-tagged N-terminal fragment of TreA with C-terminal fusion with leucine zipper (other)
chain: MAHHHHHHEETPVTPQPPDILLGPLFNDVQNAKLFPDQKTFADAVPNSDPLMILADYRMQQNQSGFDLRHFVNVNFTLPKEGEKYVPGSVPGSKIAALKEKIAALKEKNAALKWKIAALKE
In the case of B4, in assay [6], the binding result is “no binding”.

The values are drawn from US20210116443A1 (CREATIVE PROTEIN SOLUTIONS, published 2021).
